Experimental data from paper PMC6238609, “Secretory granule protein chromogranin B (CHGB) forms an anion channel in membranes” (Life Science Alliance, 2018).

Legend:
[1] = molecular target: the molecule itself; test: SEC; partially purified CHGB in a Superose 6 column, earlier SEC step during purification
[2] = molecular target: the molecule itself; test: SEC; purified CHGB in detergent (0.050% Triton X-100), Superose 6 10/30 column; single symmetric peak

B1: recombinant murine chromogranin B (CHGB) (natural protein, mouse, UniProt P16014 21-677, looked up)
chain: APVDNRDHNEEMVTRCIIEVLSNALSKSSVPTITPECRQVLKKSGKEVKGEEKGENQNSKFEVRLLRDPADASGTRWASSREDAGAPVEDSQGQTKVGNEKWTEGGGHSREGVDDQESLRPSNQQASKEAKIYHSEERVGKEREKEEGKIYPMGEHREDAGEEKKHIEDSGEKPNTFSNKRSEASAKKKDESVARADAHSMELEEKTHSREQSSQESGEETRRQEKPQELTDQDQSQEESQEGEEGEEGEEGEEGEEDSASEVTKRRPRHHHGRSGSNKSSYEGHPLSEERRPSPKESKEADVATVRLGEKRSHHLAHYRASEEEPEYGEESRSYRGLQYRGRGSEEDRAPRPRSEESQEREYKRNHPDSELESTANRHGEETEEERSYEGANGRQHRGRGREPGAHSALDTREEKRLLDEGHYPVRESPIDTAKRYPQSKWQEQEKNYLNYGEEGDQGRWWQQEEQLGPEESREEVRFPDRQYEPYPITEKRKRLGALFNPYFDPLQWKNSDFEKRGNPDDSFLEDEGEDRNGVTLTEKNSFPEYNYDWWERRPFSEDVNWGYEKRSFARAPQLDLKRQYDGVAELDQLLHYRKKADEFPDFYDSEEQMGPHQEANDEKARADQRVLTAEEKKELENLAAMDLELQKIAEKFSQRG
notes: chromogranin B (CHGB), mouse; cDNA of the mouse CHGB gene (mChgb) cloned from a pcDNA3.1 plasmid into pFastBac 1; The protein needs Triton X-100-like detergents to stay soluble; also called mCHGB; mouse CHGB; source: sf9 cells (baculovirus), purified (Q-sepharose, ammonium sulfate, Ni-IDA, Superose 6 SEC) in Triton X-100
[1]
  stoichiometry N: 4
[2]
  stoichiometry N: 2
